Measured values taken from patent publication US20220332829A1 (NANJING SANHOME PHARMACEUTICAL, published 2022).
Changes are numbered by the printed parent chain. Each block holds one binder with its values, some of them ahead of it.

How the values were obtained:
[1] = target: T1, B7-H3 on surface of tumor cell (786-0, MDA-MB-231, Raji-B7-H3 cells) (human, UniProt Q5ZPR3 29-534); experiment: cell-based or functional assay
T1 sequence (looked up): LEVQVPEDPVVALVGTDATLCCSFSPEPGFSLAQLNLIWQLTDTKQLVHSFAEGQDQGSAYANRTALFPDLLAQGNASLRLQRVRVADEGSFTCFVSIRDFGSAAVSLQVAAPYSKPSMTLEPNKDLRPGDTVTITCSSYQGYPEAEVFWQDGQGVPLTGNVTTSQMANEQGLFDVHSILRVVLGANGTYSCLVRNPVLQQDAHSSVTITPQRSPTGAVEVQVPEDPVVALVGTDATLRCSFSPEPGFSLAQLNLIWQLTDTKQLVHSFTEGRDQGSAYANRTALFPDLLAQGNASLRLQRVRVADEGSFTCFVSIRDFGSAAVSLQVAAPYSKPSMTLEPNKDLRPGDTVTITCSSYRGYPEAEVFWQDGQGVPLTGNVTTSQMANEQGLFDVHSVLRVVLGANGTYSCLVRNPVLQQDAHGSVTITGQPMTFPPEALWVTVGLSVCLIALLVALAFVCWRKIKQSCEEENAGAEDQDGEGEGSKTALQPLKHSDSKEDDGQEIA

[2] = target: T1, B7-H3 on surface of tumor cell (786-0, …); experiment: FACS on MDA-MB-231 cells
Description: (§1) The binding activity of antibodies to B7-H3 on the surface of tumor cells was analyzed by FACS. Mean fluorescence intensity (MFI) and EC₅₀ detected by FACS indicate the binding activity of the antibody to cells. After 786-0 and MDA-MB-231 cells were digested, they were resuspended in 2% FBS-PBS solution and counted. After raji-B7-H3 cells were collected, they were resuspended in 2% FBS-PBS and counted. The above cells were plated in a cell plate with 1×10⁵ cells per well. The anti-B7-H3 antibody of the present disclosure was used as the primary antibody and added to cell plates in gradient dilution starting from 20 μg/mL with a total of 8 concentrations: 20,000 ng/mL, […], 2,000 ng/mL, 400 ng/mL, 80 ng/mL, 16 ng/mL, 3.2 ng/mL, and 0.64 ng/mL respectively. The plates were incubated at 4° C. for 1 h with hBRCA84D as the positive control antibody. PE-Anti-Human IgG (Biolegend, Cat. No. 409303, 1.25 μl/well) was used as the secondary antibody, washed, and detected for the fluorescence intensity generated by the binding of the antibody to the cell surface by a flow cytometer.

[3] = target: T2, human 4Ig-B7-H3-His protein (human, UniProt Q5ZPR3 29-466); experiment: Biacore X100 SPR, 4Ig-B7-H3-His coupled to CM5 chip, antibody injected
T2 construct: also called human B7-H3 protein
T2 sequence: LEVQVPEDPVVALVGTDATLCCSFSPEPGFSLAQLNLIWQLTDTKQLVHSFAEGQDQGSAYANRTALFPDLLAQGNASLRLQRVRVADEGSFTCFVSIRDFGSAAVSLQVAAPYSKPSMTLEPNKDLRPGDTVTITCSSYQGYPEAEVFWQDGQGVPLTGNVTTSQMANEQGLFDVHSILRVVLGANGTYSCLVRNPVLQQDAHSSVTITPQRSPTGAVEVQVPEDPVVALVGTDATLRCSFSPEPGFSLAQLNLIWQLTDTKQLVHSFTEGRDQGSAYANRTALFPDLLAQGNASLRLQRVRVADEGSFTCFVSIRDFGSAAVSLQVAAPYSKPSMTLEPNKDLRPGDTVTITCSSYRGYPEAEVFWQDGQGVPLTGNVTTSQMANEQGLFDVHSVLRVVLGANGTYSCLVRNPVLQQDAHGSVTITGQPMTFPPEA
Text: The humanized anti-B7-H3 antibodies prepared in Example 4 were subjected to affinity assay by Biacore. The antigen 4Ig-B7-H3-His was first coupled to the surface of a CM5 chip (GE, Cat. No. BR100012), and the active groups of the uncoupled protein were blocked with ethanolamine. After the baseline was stable, the hu39-01, hu65-13, and hBRCA84D antibodies were respectively diluted in equal proportions. The diluted antibodies of each concentration were placed on the sample injection tray of the instrument in sequence, and the program was set to inject samples respectively.

[4] = target: T1, B7-H3 on surface of tumor cell (786-0, …); experiment: FACS on Raji-B7-H3 cells
Description: as §1

[5] = target: T1, B7-H3 on surface of tumor cell (786-0, …); experiment: FACS on 786-0 cells
Description: as §1

EC50 Ratio (ADCC, LDH method; EC50 of hBRCA84D divided by EC50 of the antibody; 786-0 target cells, human PBMC effectors) [1]: 20.1
B1: SHS007-17-CHI (antibody, human IgG1, V domains shown)
VH: QVHLQQSGPELVKPGASVKMSCKASGFTFTDYVVSWVKQRTGQGLEWIGEIYPGGGFIHYNEKFKGKATLTADKSSNTAYMQLTSLTSEDSAVYFCARFPKYYFDYWGQGTTLTVSS
VL: DVVMTQTPLSLPVSLGDQASISCRSSQSIVHSNRYTYLEWYLQKPGQSLKLLIYGVSNRFSGVPDRFSGSGSGTDFTLKISRVEAEDMGVYYCFQSTLFPWTFGGGTKLEIK

EC50 [2]: 0.14 µg/mL
Mean fluorescence intensity (MFI) [2]: 151000
Kd [3]: 0.198 nM
koff [3]: 1.89e-05 s⁻¹
kon [3]: 95400 M⁻¹ s⁻¹
EC50 [4]: 0.266 µg/mL
Mean fluorescence intensity (MFI) [4]: 566000
EC50 [5]: 0.266 µg/mL
Mean fluorescence intensity (MFI) [5]: 566000
B3: hu65-13 (antibody, human IgG1, V domains shown)
VH: EVQLVESGGGLVQPGGSLRLSCAASGFTFSDYGIHWVRQAPGKGLEWVSYISSGSNTIYYADTVKGRFTISRDNAKNSLYLQMNSLRAEDTAVYYCATMVTRWFYYAMDYWGQGTTVTVSS
VL: EIVLTQSPATLSLSPGERATLSCSASSSVSYMYWYQQKPGQAPRRLIYDTSKLASGVPARFSGSGSGTDYTLTISSLEPEDFAVYYCQQWSSNPPTFGQGTKLEIK
notes: expressed in HEK293E; also called humanized anti-B7-H3 antibody hu65-13

EC50 Ratio (ADCC, LDH method; EC50 of hBRCA84D divided by EC50 of the antibody; 786-0 target cells, human PBMC effectors) [1]: 6.6
B4: SHS007-51-CHI (antibody, V domains shown)
VH: EVQLVESGGDSVKPGGSLKLSCAASGFTFSSFGMSWVRQTPDKRLEWVATINSGDNYSYSPDSVKGRFTISRDNAKNILYLQMSSLKSEDTAMYYCARPHIFYYGSPAWFAYWGQGTLVTVSA
VL: DVVMTQTPLSLPVSLGDQASVSCRSRQSLVHSNGNTYLHWYLQRPGQSPKLLIYKVSNRFSGVPDRFSGSGSGTDFTLKISRVEAEDLGVYFCSQSTHVPLTFGAGTKLELK

EC50 Ratio (ADCC, LDH method; EC50 of hBRCA84D divided by EC50 of the antibody; 786-0 target cells, human PBMC effectors) [1]: 18.6
B6: SHS007-65-CHI (antibody, human IgG1, V domains shown)
VH: B3 VH with Q13K, R19K, G42E, S49A, S78T, Y80F, N84T, A88S, V93I, T116S
VL: QIVLTQSPAIMSASPGEKVTMTCSASSSVSYMYWYQQKSGTSPKRWIYDTSKLASGVPARFSGSGSGTSYSLTINNMEAEDAATYYCQQWSSNPPTFGAGTKLELK

More lines, now with the values behind:

B2: SHS007-95-CHI (antibody, V domains shown)
VH: EVKLVESGGELVKPGGSLKLSCAASGFTLSSYVMSWVRQTPEKRLEWVAAISRYGDPTNFPDNMRDRFTISRDNAKNTLSLQMSSLRSEDTALYFCARHHFDGTSWYFDVWGPGTTVTVSS
VL: EIVLTQSPALMAASPGERVTITCSVSSSISSIDLHWYQQKSGTFPKLWIYGTSNLASGVPVRFSGSGSGTSYSLTISTMEAEDAATYYCQQWSSFPLTFGSGTKLEIK
EC50 Ratio (ADCC, LDH method; EC50 of hBRCA84D divided by EC50 of the antibody; 786-0 target cells, human PBMC effectors) [1]: 11.4

B5: SHS007-39-CHI (antibody, human IgG1, V domains shown)
VH: EVQLQQSGPELVKPGASVKISCKTSGYTFTEYTIHWMKQSHGKSLEWIGGLNPNTGGTTYNQKFKDKATLTVDKSSSTAYMALRSLTSEDSAVYYCARKGGWFFLDYWGQGTTLIVSS
VL: B6 VL with G16R, Y33H, S62R, N75S, A99G, L103V, L105I
EC50 Ratio (ADCC, LDH method; EC50 of hBRCA84D divided by EC50 of the antibody; 786-0 target cells, human PBMC effectors) [1]: 212

B7: SHS007-72-CHI (antibody, V domains shown)
VH: QVQLVQSGPELKKPGETVKISCKASGYTFTNYGMYWVKQAPGEGLKWMGWINTHTGEPTYGDDFKGRFAFSLETPATIAFLEISILKNEDTATYFCARKSFGDFIYAMDFWGQGTSVTVSS
VL: DIQMTQTTSSLSASLGDRVTISCRASQDIGKYLNWYQQKPDGTVKLLIYYTSRLHLGVPSRFSGSGSGTDFSLTISNLEQEDTATYFCQQGTTLPPTFGGGTKVEIK
EC50 Ratio (ADCC, LDH method; EC50 of hBRCA84D divided by EC50 of the antibody; 786-0 target cells, human PBMC effectors) [1]: 7.1

B8: SHS007-59-CHI (antibody, V domains shown)
VH: EVQLQQSGPELVKPGTSVKIPCKASGYTFTDYHMDWVKQSHGKSLEWIGDINPNNGGTIYNQKFKGKATLTVDKSSSTAYMELRGLTSEDTAVYYCARGGLHDYWGPGTTLTVSS
VL: DIVMTQSQKFMSTKVGDRVSITCKASQSVGTAVAWYQQKPGQSPKLLIYSTSNRYTGVPDRFTNNASGTDFTLTISNVQSADLADYFCQQYGNYPLTFGGGTKLEIK
EC50 Ratio (ADCC, LDH method; EC50 of hBRCA84D divided by EC50 of the antibody; 786-0 target cells, human PBMC effectors) [1]: 4.4
